Data set [1] addresses T1, NPPase from barley leaves (Hordeum vulgare, UniProt Q687E1).
T1 sequence (Q687E1 19-368): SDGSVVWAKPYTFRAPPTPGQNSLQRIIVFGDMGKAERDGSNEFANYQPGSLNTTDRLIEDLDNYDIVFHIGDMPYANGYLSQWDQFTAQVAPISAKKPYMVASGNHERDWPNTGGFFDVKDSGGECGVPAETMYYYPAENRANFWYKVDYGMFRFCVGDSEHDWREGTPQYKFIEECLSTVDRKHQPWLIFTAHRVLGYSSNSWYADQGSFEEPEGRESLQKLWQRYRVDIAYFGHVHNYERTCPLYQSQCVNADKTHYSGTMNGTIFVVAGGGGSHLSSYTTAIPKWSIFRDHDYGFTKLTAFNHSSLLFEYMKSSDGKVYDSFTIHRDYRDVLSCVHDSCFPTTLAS
Nature of the data set: Enzymatic test of soluble NPPase from barley leaves: kinetic parameters, substrate specificity, effectors. As to conditions: qualitative.

The conditions of data set [2]: slightly basic pH.

B1: Proteinase K: protease (Boehringer) (protein, UniProt P06873 106-384, looked up)
Proteinase K: AAQTNAPWGLARISSTSPGTSTYYYDESAGQGSCVYVIDTGIEASHPEFEGRAQMVKTYYYSSRDGNGHGTHCAGTVGSRTYGVAKKTQLFGVKVLDDNGSGQYSTIIAGMDFVASDKNNRNCPKGVVASLSLGGGYSSSVNSAAARLQSSGVMVAVAAGNNNADARNYSPASEPSVCTVGASDRYDRRSSFSNYGSVLDIFGPGTSILSTWIGGSTRSISGTSMATPHVAGLAAYLMTLGKTTAASACRYIADTANKGDLSNIPFGTVNLLAYNNYQA
Take B1: the “resistance of NPPase to ionic detergents and proteases” value in data set [1] is on record as “resistant”.

B2: NPPase: plant nucleotide pyrophosphatase/phosphodiesterase, soluble 70-kDa isoform purified from barley leaves (protein)
chain: MVSRKRGGGGGVAMAVAMLLAAASASRPSSSLEGFQPLSKIAVHKATVDLHGSAFVSATPALLGDQGEDTEWVTVKYGWANPSADDWIAVFSPADFISGSCPNPSRYPDEPLLCTAPIKYQFANYSANYVYWGKGSIRFQLINQRYDFSFALFTGGLENPKLVAVSEAISFKNPKAPVYPRLAQGKSYDEMTVTWTSGYDISEAYPFVEWGMVVAGAAAPTRTAAGTLTFNRGSMCGDPDRTVGWRDPGFIHTAFLRDLWPNKEYYYKIGHELSDGSIVWGKQYTFRAPPFPGQNSLQRIIVFGDMGKAERDGSNEFANYQPGSLNTTDRLVEDLDNYDIVFHIGDLPYANGYISQWDQFTAQVAPITAKKPYMIASGNHERDWPNTGGFFDVKDSGGECGVPAETMYYYPAENRANFWYKVDYGMFRFCIADSEHDWREGTDQYKFIEQCLSTVDRKHQPWLIFAAHRVLGYSSNWWYADQQSFEEPEGRESLQRLWQRHRVDVAFFGHVHNYERTCPMYQSQCVSGERRRYSGTMNGTIFVVAGGGGSHLSDYTSAIPKWSVFRDRDFGFVKLTAFNHSSLLFEYKKSSDGKVYDSFTVERDYRDVLSCVHDSCLPTTLAS
B2: in data set [2], the pH sensitivity entry is “sensitive”.

These data come from US20060242739A1, “Plant nucleotide-sugar pyrophosphatase/phosphodiesterase (nppase), method of obtaining same and use of same in the production of assay devices and in the production of transgenic plants” (Universidad Publica De Navarra, priority 2002, published 2006).
